In IntAct's records for PubMed 19407142:

B1: Abscisic acid receptor PYR1 (Arabidopsis thaliana (Mouse-ear cress)), O49686 (parent)
chain: MPSELTPEERSELKNSIAEFHTYQLDPGSCSSLHAQRIHAPPELVWSIVRRFDKPQTYKHFIKSCSVEQNFEMRVGCTRDVIVISGLPANTSTERLDILDDERRVTGFSIIGGEHRLTNYKSVTTVHRFEKENRIWTVVLESYVVDMPEGNSEDDTRMFADTVVKLNLQKLATVAEAMARNSGDGSGSQVT
B2: Protein phosphatase 2C 77 (Arabidopsis thaliana (Mouse-ear cress)), O04719 (parent)
chain: MDEVSPAVAVPFRPFTDPHAGLRGYCNGESRVTLPESSCSGDGAMKDSSFEINTRQDSLTSSSSAMAGVDISAGDEINGSDEFDPRSMNQSEKKVLSRTESRSLFEFKCVPLYGVTSICGRRPEMEDSVSTIPRFLQVSSSSLLDGRVTNGFNPHLSAHFFGVYDGHGGSQVANYCRERMHLALTEEIVKEKPEFCDGDTWQEKWKKALFNSFMRVDSEIETVAHAPETVGSTSVVAVVFPTHIFVANCGDSRAVLCRGKTPLALSVDHKPDRDDEAARIEAAGGKVIRWNGARVFGVLAMSRSIGDRYLKPSVIPDPEVTSVRRVKEDDCLILASDGLWDVMTNEEVCDLARKRILLWHKKNAMAGEALLPAEKRGEGKDPAAMSAAEYLSKMALQKGSKDNISVVVVDLKGIRKFKSKSLN
B3: Protein phosphatase 2C 56 (Arabidopsis thaliana (Mouse-ear cress)), P49597 (parent)
chain: MEEVSPAIAGPFRPFSETQMDFTGIRLGKGYCNNQYSNQDSENGDLMVSLPETSSCSVSGSHGSESRKVLISRINSPNLNMKESAAADIVVVDISAGDEINGSDITSEKKMISRTESRSLFEFKSVPLYGFTSICGRRPEMEDAVSTIPRFLQSSSGSMLDGRFDPQSAAHFFGVYDGHGGSQVANYCRERMHLALAEEIAKEKPMLCDGDTWLEKWKKALFNSFLRVDSEIESVAPETVGSTSVVAVVFPSHIFVANCGDSRAVLCRGKTALPLSVDHKPDREDEAARIEAAGGKVIQWNGARVFGVLAMSRSIGDRYLKPSIIPDPEVTAVKRVKEDDCLILASDGVWDVMTDEEACEMARKRILLWHKKNAVAGDASLLADERRKEGKDPAAMSAAEYLSKLAIQRGSKDNISVVVVDLKPRRKLKSKPLN

Variants of: B1
Details: with HAB1, Q9CAJ0
Chain of HAB1, Q9CAJ0 (Q9CAJ0 whole entry): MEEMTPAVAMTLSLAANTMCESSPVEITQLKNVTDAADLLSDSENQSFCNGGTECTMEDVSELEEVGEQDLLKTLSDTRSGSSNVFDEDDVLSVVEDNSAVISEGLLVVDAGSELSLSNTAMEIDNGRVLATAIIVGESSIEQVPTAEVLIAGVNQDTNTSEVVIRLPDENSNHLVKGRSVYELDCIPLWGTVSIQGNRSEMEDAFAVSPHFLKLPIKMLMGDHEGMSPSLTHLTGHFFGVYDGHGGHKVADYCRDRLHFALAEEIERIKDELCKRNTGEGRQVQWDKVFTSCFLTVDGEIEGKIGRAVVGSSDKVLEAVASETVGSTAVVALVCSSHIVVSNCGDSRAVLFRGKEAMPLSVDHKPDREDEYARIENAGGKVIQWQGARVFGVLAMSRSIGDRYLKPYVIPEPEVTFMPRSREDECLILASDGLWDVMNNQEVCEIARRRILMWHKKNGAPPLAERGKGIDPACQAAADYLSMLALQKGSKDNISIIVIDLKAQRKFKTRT

Variant | effect of a mutation on the interaction
MPSELTPEERSELKNSIAEFHTYQLDPGSCSSLHAQRIHAPPELVWSIVRRFDKPQTYKHFIKSCSVEQNFEMRVGCTRDVIVISGLPANTSTERLDILDDERRVTGFSIIGGEHRLTNYKSVTTVHRFEKENRIWTVVLESYVVDMPEGNLEDDTRMFADTVVKLNLQKLATVAEAMARNSGDGSGSQVT [S152L] | disrupting interaction
MPSELTPEERSELKNSIAEFHTYQLDPGSCSSLHAQRIHAPPELVWSIVRRFDKPQTYKHFIKSCSVEQNFEMRVGCTRDVIVISGLSANTSTERLDILDDERRVTGFSIIGGEHRLTNYKSVTTVHRFEKENRIWTVVLESYVVDMPEGNSEDDTRMFADTVVKLNLQKLATVAEAMARNSGDGSGSQVT [P88S] | disrupting interaction

Variants of: B2
Details: with pyr1_arath PYR1, O49686

Variant | effect of a mutation on the interaction
MDEVSPAVAVPFRPFTDPHAGLRGYCNGESRVTLPESSCSGDGAMKDSSFEINTRQDSLTSSSSAMAGVDISAGDEINGSDEFDPRSMNQSEKKVLSRTESRSLFEFKCVPLYGVTSICGRRPEMEDSVSTIPRFLQVSSSSLLDGRVTNGFNPHLSAHFFGVYDGHDGSQVANYCRERMHLALTEEIVKEKPEFCDGDTWQEKWKKALFNSFMRVDSEIETVAHAPETVGSTSVVAVVFPTHIFVANCGDSRAVLCRGKTPLALSVDHKPDRDDEAARIEAAGGKVIRWNGARVFGVLAMSRSIGDRYLKPSVIPDPEVTSVRRVKEDDCLILASDGLWDVMTNEEVCDLARKRILLWHKKNAMAGEALLPAEKRGEGKDPAAMSAAEYLSKMALQKGSKDNISVVVVDLKGIRKFKSKSLN [G168D] | disrupting interaction

Variants of: B3
Details: with pyr1_arath PYR1, O49686

Variant | effect of a mutation on the interaction
MEEVSPAIAGPFRPFSETQMDFTGIRLGKGYCNNQYSNQDSENGDLMVSLPETSSCSVSGSHGSESRKVLISRINSPNLNMKESAAADIVVVDISAGDEINGSDITSEKKMISRTESRSLFEFKSVPLYGFTSICGRRPEMEDAVSTIPRFLQSSSGSMLDGRFDPQSAAHFFGVYDGHDGSQVANYCRERMHLALAEEIAKEKPMLCDGDTWLEKWKKALFNSFLRVDSEIESVAPETVGSTSVVAVVFPSHIFVANCGDSRAVLCRGKTALPLSVDHKPDREDEAARIEAAGGKVIQWNGARVFGVLAMSRSIGDRYLKPSIIPDPEVTAVKRVKEDDCLILASDGVWDVMTDEEACEMARKRILLWHKKNAVAGDASLLADERRKEGKDPAAMSAAEYLSKLAIQRGSKDNISVVVVDLKPRRKLKSKPLN [G180D] | decreasing interaction
